Reference: patent US20070087405

Target: β subunit of human prolyl 4-hydroxylase, P07237
Sequence (P07237 18-508): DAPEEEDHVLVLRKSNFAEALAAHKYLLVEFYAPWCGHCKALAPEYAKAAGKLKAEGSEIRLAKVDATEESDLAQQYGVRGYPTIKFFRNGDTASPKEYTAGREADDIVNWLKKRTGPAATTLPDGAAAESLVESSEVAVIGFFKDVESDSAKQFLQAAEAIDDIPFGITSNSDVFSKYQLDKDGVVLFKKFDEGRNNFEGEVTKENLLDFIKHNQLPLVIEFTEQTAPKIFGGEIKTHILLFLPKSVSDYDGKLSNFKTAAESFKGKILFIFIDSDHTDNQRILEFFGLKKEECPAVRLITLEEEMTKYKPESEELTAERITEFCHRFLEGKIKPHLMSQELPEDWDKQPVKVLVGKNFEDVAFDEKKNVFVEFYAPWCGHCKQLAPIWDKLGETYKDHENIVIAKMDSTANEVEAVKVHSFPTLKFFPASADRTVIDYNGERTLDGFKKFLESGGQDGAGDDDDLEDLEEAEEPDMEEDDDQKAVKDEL

B1: α subunit of human prolyl 4-hydroxylase (protein)
chain: HPGFFTSIGQMTDLIHTEKDLVTSLKDYIKAEEDKLEQIKKWAEKLDRLTSTATKDPEGFVGHPVNAFKLMKRLNTEWSELENLVLKDMSDGFISNLTIQRQYFPNDEDQVGAAKALLRLQDTYNLDTDTISKGNLPGVKHKSFLTAEDCFELGKVAYTEADYYHTELWMEQALRQLDEGEISTIDKVSVLDYLSYAVYQQGDLDKALLLTKKLLELDPEHQRANGNLKYFEYIMAKEKDVNKSASDDQSDQKTTPKKKGVAVDYLPERQKYEMLCRGEGIKMTPRRQKKLFCRYHDGNRNPKFILAPAKQEDEWDKPRIIRFHDIISDAEIEIVKDLAKPRLRRATISNPITGDLETVHYRISKSAWLSGYENPVVSRINMRIQDLTGLDVSTAEELQVANYGVGGQYEPHFDFARKDEPDAFKELGTGNRIATWLFYMSDVSAGGATVFPEVGASVWPKKGTAVFWYNLFASGEGDYSTRHAACPVLVGNKWVSNKWLHERGQEFRRPCTLSELE
For B1, which “prolyl 4-hydroxylase activity (decarboxylation of 2-oxo[1-14C]glutarate) and trimeric assembly of mC21” value is on record?
The value was “These data suggest that the P4α and P4β are capable of assembling into an active α2β2 tetramer in the Drosophila expression system”.
